Target: the molecule itself
Experiment: cryo-EM structure; single-particle cryo-EM of detergent-solubilised prestin (extracted in digitonin, purified in GDN), about 2 mg/ml, 10 mM HEPES, 200 mM NaCl, 0.02% GDN, pH 7.4; C2 symmetry imposed; 3.6 Å

B1: full-length prestin from gerbil (Meriones unguiculatus) tagged at its C terminus with enhanced yellow fluorescent protein (EYFP) (natural protein, UniProt Q9JKQ2 1-744, looked up)
chain: MDHAEENEIPVATQKYHVERPIFSHPVLQERLHVKDKVSESIGDKLKQAFTCTPKKIRNIIYMFLPITKWLPAYKFKEYVLGDLVSGISTGVLQLPQGLAFAMLAAVPPVFGLYSSFYPVIMYCFFGTSRHISIGPFAVISLMIGGVAVRLVPDDIVIPGGVNATNGTEARDALRVKVAMSVTLLSGIIQFCLGVCRFGFVAIYLTEPLVRGFTTAAAVHVFTSMLKYLFGVKTKRYSGIFSVVYSTVAVLQNVKNLNVCSLGVGLMVFGLLLGGKEFNERFKEKLPAPIPLEFFAVVMGTGISAGFNLHESYSVDVVGTLPLGLLPPANPDTSLFHLVYVDAIAIAIVGFSVTISMAKTLANKHGYQVDGNQELIALGICNSIGSLFQTFSISCSLSRSLVQEGTGGKTQLAGCLASLMILLVILATGFLFESLPQAVLSAIVIVNLKGMFMQFSDLPFFWRTSKIELTIWLTTFVSSLFLGLDYGLITAVIIALLTVIYRTQSPSYKVLGQLPDTDVYIDIDAYEEVKEIPGIKIFQINAPIYYANSDLYSNALKRKTGVNPALIMGARRKAMRKYAKEVGNANIANAAVVKVDGEVDGENATKPEEEDDEVKYPPIVIKTTFPEELQRFMPQTENVHTIILDFTQVNFIDSVGVKTLAVMVKEYGDVGIYVYLAGCSPQVVNDLTRNRFFENPALKELLFHSIHDAVLGSHVREAMAEQEASAPPPQDDMEPNATPTTPEA
notes: prestin (Slc26a5), gerbil (Meriones unguiculatus), GenBank AF230376, full-length cDNA; the model is built to residue A726; also called Slc26a5; prestin-YFP; not shown: EYFP, C-terminal, kept
- stoichiometry N: 2

Reference: publication PMC8755724, “Single particle cryo-EM structure of the outer hair cell motor protein prestin” (Nature Communications, 2022)
